Source: patent US20240400720A1 (NOVIMMUNE S A, published 2024)
One block for each binder: values may come before it.

What was measured:
[1] = molecular target: T1, human CD47 on the cell surface (human, UniProt Q08722 19-323); assay: CD47-SIRPα inhibition assay on Raji cells (competition with soluble SIRPα)
T1 construct: whole, on cells; also called huCD47; native CD47

human CD19 = molecular target: T2, human CD19 (human, UniProt P15391 20-291, limits assumed); assay: parental antibody, weaker than D11
T2 construct: also called hCD19
T2 sequence (looked up): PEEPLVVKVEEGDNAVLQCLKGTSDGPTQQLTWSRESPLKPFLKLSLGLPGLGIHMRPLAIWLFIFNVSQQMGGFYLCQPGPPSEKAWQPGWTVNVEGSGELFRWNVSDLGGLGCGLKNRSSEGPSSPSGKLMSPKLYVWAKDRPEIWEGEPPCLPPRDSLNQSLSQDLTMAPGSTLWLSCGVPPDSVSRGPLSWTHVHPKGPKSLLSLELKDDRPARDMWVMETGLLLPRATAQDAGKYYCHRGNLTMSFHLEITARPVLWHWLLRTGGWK

human CD19 on Raji cells = molecular target: T3, human CD19 on Raji cells (human, UniProt P15391 20-556); assay: FACS on Raji cells (CD19-positive), dose-response
T3 construct: whole, on cells; also called native form of hCD19
T3 sequence (looked up): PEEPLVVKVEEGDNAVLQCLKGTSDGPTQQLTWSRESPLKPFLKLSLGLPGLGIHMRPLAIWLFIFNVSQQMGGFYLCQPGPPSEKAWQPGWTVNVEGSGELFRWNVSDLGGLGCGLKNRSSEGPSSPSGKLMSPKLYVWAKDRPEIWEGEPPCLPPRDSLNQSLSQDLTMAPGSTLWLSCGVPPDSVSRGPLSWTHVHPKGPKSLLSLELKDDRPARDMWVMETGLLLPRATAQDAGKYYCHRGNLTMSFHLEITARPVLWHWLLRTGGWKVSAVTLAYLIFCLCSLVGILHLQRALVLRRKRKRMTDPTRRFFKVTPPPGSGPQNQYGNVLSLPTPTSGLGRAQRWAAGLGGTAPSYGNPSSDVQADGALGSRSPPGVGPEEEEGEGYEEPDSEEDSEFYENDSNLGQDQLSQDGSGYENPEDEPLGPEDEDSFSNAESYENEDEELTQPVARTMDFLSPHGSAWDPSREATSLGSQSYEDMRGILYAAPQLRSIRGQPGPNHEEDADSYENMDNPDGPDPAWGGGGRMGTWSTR

- IC50 [1]: 0.066 nM
B1: CD47xCD19 bispecific antibody with CD47 arm Ke8G11 (bispecific antibody)
heavy: not shown
light 1: DIQMTQSPSSLSASVGDRVTITCRASQSIGRYLNWYQQKPGKAPKLLIYAASSLQSGVPSRFSGSGSGTDFTLTISSLQPEDFATYYCQQMHPRGPKTFGQGTKVEIKRTVAAPSVFIFPPSDEQLKSGTASVVCLLNNFYPREAKVQWKVDNALQSGNSQESVTEQDSKDSTYSLSSTLTLSKADYEKHKVYACEVTHQGLSSPVTKSFNRGEC
light 2: NFMLTQPHSVSESPGKTVTISCTRSSGSIEDKYVQWYQQRPGSSPTIVIYYDNERPSGVPDRFSGSIDSSSNSASLTISGLKTEDEADYYCQTYDQSLYGWVFGGGTKLTVLGQPKAAPSVTLFPPSSEELQANKATLVCLISDFYPGAVTVAWKADSSPVKAGVETTTPSKQSNNKYAASSYLSLTPEQWKSHRSYSCQVTHEGSTVEKTVAPTECS
notes: also called Ke8G11 CD47Xcd19 BsAb; κλ body

- binding result (human CD19): binds
- binding result (human CD19 on Raji cells): binds
B2: B7 antibody (antibody, human IgG1, lambda, V domains shown)
VH: not shown
VL: NFMLTQPHSVSESPGKTVTISCTRSSGSIADKYVQWYQQRPGSSPTTVIYEDNQRPSGVPDRFSGSIDSSSNSASLTISGLKTEDEADYYCQSYDSSLYGWVFGGGTKLTVLG
notes: anti-CD19, IgG, lambda (IGLV6-57); parental clone; also called 1B7
